The target of assay [1] is Recombinant Human Desmoglein-2 Fc Chimera Protein (R&D Systems, 947-DM-100) (human) (UniProt Q14126). The assay is described as follows: SPR.
Assay [2] has as its target Recombinant Human CXADR Fc Chimera Protein (CAR; R&D Systems, 3336-CX-050) (human) (UniProt P78310). Description: SPR (BIAcore 3000), receptor amine coupled to CM5 chip, knob as analyte.
Assay [3] concerns the target Recombinant Human CD46 Protein (His Tag) (Sino biological, 12239-H08H) (human) (UniProt P15529). Description: SPR (BIAcore 3000), receptor amine coupled to CM5 chip, knob as analyte, equilibrium fit.
For assay [4], the target named is Recombinant Human Desmoglein-2 Fc Chimera Protein (R&D Systems, 947-DM-100) (human) (UniProt Q14126). The description is as above.
For assay [5], the target named is CAR on CHO-CAR cells (human) (UniProt P78310).
Sequence of CAR on CHO-CAR cells (human) (P78310 20-365): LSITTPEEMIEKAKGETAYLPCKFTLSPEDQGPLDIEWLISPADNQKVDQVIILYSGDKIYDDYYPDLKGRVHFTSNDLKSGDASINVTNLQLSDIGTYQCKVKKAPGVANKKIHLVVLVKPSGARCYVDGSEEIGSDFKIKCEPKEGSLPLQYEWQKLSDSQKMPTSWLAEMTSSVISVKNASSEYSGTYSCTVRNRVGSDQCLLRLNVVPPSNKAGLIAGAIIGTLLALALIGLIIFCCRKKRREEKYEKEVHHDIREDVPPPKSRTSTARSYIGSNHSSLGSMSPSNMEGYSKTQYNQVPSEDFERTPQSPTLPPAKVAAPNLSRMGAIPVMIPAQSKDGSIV
The target in assay [6] is T1, Recombinant Human Desmoglein-2 Fc Chimera Protein (R&D Systems, 947-DM-100) (human, UniProt Q14126 50-609).
T1 chain: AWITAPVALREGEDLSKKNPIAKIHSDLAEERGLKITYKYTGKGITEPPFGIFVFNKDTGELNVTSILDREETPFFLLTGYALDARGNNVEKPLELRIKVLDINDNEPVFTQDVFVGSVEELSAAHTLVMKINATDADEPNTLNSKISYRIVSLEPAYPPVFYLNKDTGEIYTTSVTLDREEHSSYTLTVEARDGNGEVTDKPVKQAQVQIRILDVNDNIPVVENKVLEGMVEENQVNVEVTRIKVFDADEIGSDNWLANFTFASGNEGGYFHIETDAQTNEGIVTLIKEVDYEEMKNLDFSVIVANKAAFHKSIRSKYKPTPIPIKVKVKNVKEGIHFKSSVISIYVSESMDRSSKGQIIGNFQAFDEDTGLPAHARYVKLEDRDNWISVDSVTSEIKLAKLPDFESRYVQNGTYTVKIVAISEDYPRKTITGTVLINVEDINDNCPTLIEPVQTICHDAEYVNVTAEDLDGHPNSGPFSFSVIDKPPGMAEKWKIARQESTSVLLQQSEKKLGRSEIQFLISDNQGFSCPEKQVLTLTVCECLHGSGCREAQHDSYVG
Description: SPR.

In assay [7] the target is T2, Recombinant Human CD46 Protein (His Tag) (Sino biological, 12239-H08H) (human, UniProt P15529 35-328).
T2 chain: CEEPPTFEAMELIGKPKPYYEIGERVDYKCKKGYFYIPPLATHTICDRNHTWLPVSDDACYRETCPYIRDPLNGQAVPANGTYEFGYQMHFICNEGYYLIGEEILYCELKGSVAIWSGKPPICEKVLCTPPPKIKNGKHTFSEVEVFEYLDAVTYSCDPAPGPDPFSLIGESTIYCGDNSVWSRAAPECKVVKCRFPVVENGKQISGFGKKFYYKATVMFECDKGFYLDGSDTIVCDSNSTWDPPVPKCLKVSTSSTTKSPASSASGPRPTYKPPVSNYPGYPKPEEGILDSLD
Description: SPR.

Sequence of Recombinant Human CXADR Fc Chimera Protein (CAR; R&D Systems, 3336-CX-050) (human) (P78310 20-237, stated change not applied): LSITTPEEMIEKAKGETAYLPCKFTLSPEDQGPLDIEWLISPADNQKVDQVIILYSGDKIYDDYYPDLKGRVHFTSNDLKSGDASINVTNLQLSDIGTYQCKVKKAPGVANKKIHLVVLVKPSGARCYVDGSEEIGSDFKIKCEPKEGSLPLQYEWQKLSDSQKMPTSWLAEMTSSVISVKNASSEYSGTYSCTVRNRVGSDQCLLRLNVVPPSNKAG

“Recombinant HAdV-C5 fiber knob protein (from UniProt P11818 387-581)”: the values for the Kd in assay [1] and in assay [2] were 125 µM and 0.00076 µM, respectively.
Consider Recombinant HAdV-D10 fiber knob protein, for which the results for the Kd in assay [3], in assay [4] and in assay [2] were 20 µM, 125 µM and 0.44 µM, respectively. Besides, the fold lower affinity than HAdV-C5 (by IC50 values) in assay [5] came to 16.5 fold.

B1: HAdV-B3k (other)
chain: TFDSSNSIALKNNTLWTGPKPEANCIIEYGKQNPDSKLTLILVKNGGIVNGYVTLMGASDYVNTLFKNKNVSINVELYFDATGHILPDSSSLKTDLELKYKQTADFSARGFMPSTTAYPFVLPNAGTHNENYIFGQCYYKASDGALFPLEVTVMLNKRLPDSRTSYVMTFLWSLNAGLAPETTQATLITSPFTFSYIREDD
For B1, the Kd in assay [6] is 66.9 µM; in assay [7], 0.16 µM.

Values taken from patent publication US20240180982A1 (published 2024).
